Key:
[1] = substrate: Nc1ncnc2c1ncn2[C@@H]1O[C@H](COP(=O)(O)OP(=O)(O)O[C@H]2O[C@H](CO)[C@@H](O)[C@H](O)[C@H]2O)[C@@H](O)[C@H]1O; experiment: purified protein, by the assay type; details: other: −citrate, 5 mg/ml amylopectin as primer, 37° C.
Procedure: (SEQ ID NO:64). pExs8 encodes a truncated SSI, SSI-2, with amino acids # 8-52 deleted from the N-terminus of SSI-1 and which has the N-terminal sequence CVAELSR/DLG (SEQ ID NO:65). pExs1d encodes the most truncated form of SSI, SSI-3, with the first 93 amino acids deleted from SSI-1 and which has the N-terminal sequence [sequence]
5 mL of supernatant were used to assay STS and SBE activities as previously described (Preiss) with minor modification. The reaction mixture for STS contained 100 mM Bicine buffer, 10 mg/mL glycogen, 0.5 mg/mL BSA, 0.5 M sodium citrate, 25 mM potassium acetate, 10 mM GSH, 3 mM [^14C]-ADPGlc (500 dpm/nmol) and enzyme in a final volume of 0.1 mL. The reaction was carried out at 25° C. for 15 min and terminated by boiling for 2 min. The unincorporated [^14C]-ADPGlc was separated with Dowex anion exchange column (200-400 mesh, Sigma Chemical Co.). One unit of activity is defined as 1 nmol Glc incorporated into the a-glucan per min at 25° C.
For the recombinant SS purification, the cell pellet was resuspended in sonication buffer (50 mM Tris-acetate, pH 7.5, 10 mM EDTA, and 5 mMDTT; 7 ml buffer per gram of cell mass), and cells were lysed using a Fisher 550 Sonic Dismembrator with 5×1 min. bursts with 30 sec. intervals. The homogenate was centrifuged at 9600 g for 30 minutes. SSI in the supernatant was then precipitated by slowly adding neutralized saturated ammonium sulfate to 40% saturation. After stirring on ice for an additional 50 minutes, proteins were collected by centrifugation at 12500 g for 45 minutes. The protein pellet was then redissolved in buffer A (50 mM Tris, pH 5.5, 1 mM EDTA, and 5 mM DTT) containing 0.1 M KCl and dialyzed against the same buffer, with one change of buffer. After dialysis, the sample was centrifuged at 13000 g for 20 minutes to remove insoluble materials. The resulting supernatant was loaded onto amylase affinity column pre-equilibrated with dialysis buffer, and the flow through was collected. […]

[2] = substrate: Nc1ncnc2c1ncn2[C@@H]1O[C@H](COP(=O)(O)OP(=O)(O)O[C@H]2O[C@H](CO)[C@@H](O)[C@H](O)[C@H]2O)[C@@H](O)[C@H]1O; experiment: ADPGlc kinetics of starch synthase SSIIb-1; format: biochemical, maize; details: 37° C.
[3] = substrate: Nc1ncnc2c1ncn2[C@@H]1O[C@H](COP(=O)(O)OP(=O)(O)O[C@H]2O[C@H](CO)[C@@H](O)[C@H](O)[C@H]2O)[C@@H](O)[C@H]1O; experiment: ADPGlc kinetics of starch synthase SSIIb-2; format: biochemical, maize; details: 37° C.
Excerpt: FIG. 60. SSIIb-1 and SSIIb-2 construct diagram. Two forms of SSIIb were constructed in the pET expression system (see Methods). pExs9 encodes SSIIb-1 which has the N-terminal sequence GSVGAALRS (SEQ ID NO:70), the putative full-length maize SSIIb which has the N-terminal sequence AAAPAGEE (SEQ ID NO:2). […] A depiction of the waxy gene, encoding GBSS which has the N-terminal sequence ASAGMNVV (SEQ ID NO:67), is also included for comparison. The amino acid motif KTGGL (SEQ ID NO:10), the putative binding site for ADPGlc, is indicated by the triangles. The KTGGL (SEQ ID NO:10) motif is located 18 amino acids from the N-terminus in GBSS, while the motif is 158 amino acids from the N-terminus in maize SSIIb.
5 mL of supernatant were used to assay STS and SBE activities as previously described (Preiss) with minor modification. […] […] The unincorporated [^14C]-ADPGlc was separated with Dowex anion exchange column (200-400 mesh, Sigma Chemical Co.). […] SBE activity was determined by phosphorylase stimulation assay. One unit of activity is defined as 1 mmol Glc incorporated into the a-glucan per min at. 30° C.
For the recombinant SS purification, the cell pellet was resuspended in sonication buffer (50 mM Tris-acetate, pH 7.5, 10 mM EDTA, and 5 mMDTT; 7 ml buffer per gram of cell mass), and cells were lysed using a Fisher 550 Sonic Dismembrator with 5×1 min. bursts with 30 sec. intervals. The homogenate was centrifuged at 9600 g for 30 minutes. SSI in the supernatant was then precipitated by slowly adding neutralized saturated ammonium sulfate to 40% saturation. After stirring on ice for an additional 50 minutes, proteins were collected by centrifugation at 12500 g for 45 minutes. The protein pellet was then redissolved in buffer A (50 mM Tris, pH 5.5, 1 mM EDTA, and 5 mM DTT) containing 0.1 M KCl and dialyzed against the same buffer, with one change of buffer. After dialysis, the sample was centrifuged at 13000 g for 20 minutes to remove insoluble materials. The resulting supernatant was loaded onto […] pre-equilibrated with dialysis buffer, and the flow through was collected. The column was washed with 10 column volumes of buffer a containing 0.1 M KCl, and then with buffer A containing 0.5 M KCl and 0.5 M maltose, collecting fractions during both washes. The active fractions were pooled and dialyzed overnight against buffer A, with one change of buffer. The next day, the amylase column sample was filtered and applied to a mono Q 5/5 FPLC column (Pharmacia). After washing with buffer A, a 20 ml 0-0,4 M KCl gradient was employed. […]

[4] = substrate: Nc1ncnc2c1ncn2[C@@H]1O[C@H](COP(=O)(O)OP(=O)(O)O[C@H]2O[C@H](CO)[C@@H](O)[C@H](O)[C@H]2O)[C@@H](O)[C@H]1O; experiment: ADPGlc kinetics of starch synthase SSI-3; format: biochemical, maize; details: other: −citrate, 5 mg/ml amylopectin as primer, 37° C.
Excerpt: (§1) FIG. 58. SSI-1, SSI-2, and SSI-3 construct design. Three forms of SSI were constructed in the pET expression (see Methods). pExs10a encodes SSI-1, the full length maize SSI (583 amino acids) which has the N-terminal sequence CVAELSREGP (SEQ ID NO:64). pExs8 encodes a truncated SSI, SSI-2, with amino acids # 8-52 deleted from the N-terminus of SSI-1 and which has the N-terminal sequence CVAELSR/DLG (SEQ ID NO:65). pExs1d encodes the most truncated form of SSI, SSI-3, with the first 93 amino acids deleted from SSI-1 and which has the N-terminal sequence SIVFVTGE (SEQ ID NO:66). A depiction of the waxygene, encoding GBSS, which has the N-terminal sequence ASAGMNW (SEQ ID NO:67), is also included for comparison. The amino acid motif KS/TGGL (SEQ ID NO:9), the putative binding site for ADGPGlc, in indicated by the triangles. The KS/TGGL (SEQ ID NO:9) motif is located 18 amino acids from the N-terminus in GBSS, while the motif is 106 amino acids from the N-terminus in maize SSI. Drawing not to scale.
(§2) 5 mL of supernatant were used to assay STS and SBE activities as previously described (Preiss) with minor modification. […] The unincorporated [^14C]-ADPGlc was separated with Dowex anion exchange column (200-400 mesh, Sigma Chemical Co.). […] SBE activity was determined by phosphorylase stimulation assay. One unit of activity is defined as 1 mmol Glc incorporated into the a-glucan per min at. […]

[5] = substrate: Nc1ncnc2c1ncn2[C@@H]1O[C@H](COP(=O)(O)OP(=O)(O)O[C@H]2O[C@H](CO)[C@@H](O)[C@H](O)[C@H]2O)[C@@H](O)[C@H]1O; experiment: ADPGlc kinetics of starch synthase SSI-1; format: biochemical, maize; details: other: −citrate, 5 mg/ml amylopectin as primer, 37° C.
Excerpt: as §1, §2

B1: maize starch synthase SSI-2 (STSI-2), N-terminally truncated SSI, amino acids 8-52 of SSI-1 deleted, N-terminus CVAELSR/DLG (SEQ ID NO:65) (Zea mays; DEL47-91) (protein)
chain: CVAELSRDLGLEPEGIAEGSIDNTVVVASEQDSEIVVGKEQARAKVTQSIVFVTGEASPYAKSGGLGDVCGSLPVALAARGHRVMVVMPRYLNGTSDKNYANAFYTEKHIRIPCFGGEHEVTFFHEYRDSVDWVFVDHPSYHRPGNLYGDKFGAFGDNQFRYTLLCYAACEAPLILELGGYIYGQNCMFVVNDWHASLVPVLLAAKYRPYGVYKDSRSILVIHNLAHQGVEPASTYPDLGLPPEWYGALEWVFPEWARRHALDKGEAVNFLKGAVVTADRIVTVSKGYSWEVTTAEGGQGLNELLSSRKSVLNGIVNGIDINDWNPATDKCIPCHYSVDDLSGKAKCKGALQKELGLPIRPDVPLIGFIGRLDYQKGIDLIQLIIPDLMREDVQFVMLGSGDPELEDWMRSTESIFKDKFRGWVGFSVPVSHRITAGCDILLMPSRFEPCGLNQLYAMQYGTVPVVHATGGLRDTVENFNPFGENGEQGTGWAFAPLTTENMFVDIANCNIYIQGTQVLLGRANEARHVKRLHVGPCR
B1 gave a Km [1] of 250 ± 40 µM.

B2: maize starch synthase SSIIb-1, putative full-length SSIIb (637 amino acids), N-terminus … (SEQ ID NO:70) (Zea mays) (protein)
chain: AAAPAGGESEEAAKSSSSSQAGAVQGSTAKAVDSASPPNPLTSAPKQSQSAAMQNGTSGGSSASTAAPVSGPKADHPSAPVTKREIDASAVKPEPAGDDARPVESIGIAEPVDAKADAAPATDAAASAPYDREDNEPGPLAGPNVMNVVVVASECAPFCKTGGLGDVVGALPKALARRGHRVMVVIPRYGEYAEARDLGVRRRYKVAGQDSEVTYFHSYIDGVDFVFVEAPPFRHRHNNIYGGERLDILKRMILFCKAAVEVPWYAPCGGTVYGDGNLVFIANDWHTALLPVYLKAYYRDNGLMQYARSVLVIHNIAHQGRGPVDDFVNFDLPEHYIDHFKLYDNIGGDHSNVFAAGLKTADRVVTVSNGYMWELKTSEGGWGLHDIINQNDWKLQGIVNGIDMSEWNPAVDVHLHSDDYTNYTFETLDTGKRQCKAALQRQLGLQVRDDVPLIGFIGRLDHQKGVDIIADAIHWIAGQDVQLVMLGTGRADLEDMLRRFESEHSDKVRAWVGFSVPLAHRITAGADILLMPSRFEPCGLNQLYAMAYGTVPVVHAVGGLRDTVAPFDPFNDTGLGWTFDRAEANRMIDALSHCLTTYRNYKESWRACRARGMAEDLSWDHAAVLYEDVLVKAKYQW
notes: N-terminus printed as both … and AAAPAGEE
B2 showed a Km ([2]; other: with amylopectin) of 400 ± 20 µM, a Vmax ([2]; other: with amylopectin) of 72.8 ± 2.8 μmol min^−1 mg^−1 protein and a Km ([2]; other: with glycogen) of 710 ± 10 µM. For the same protein, the Vmax ([2]; other: with glycogen) was 76.8 ± 3.2 μmol min^−1 mg^−1 protein.

B3: maize starch synthase SSIIb-2, N-terminally truncated SSIIb, first 144 amino acids deleted (492 amino acids), N-terminus MNVVVVASE (SEQ ID NO:71) (Zea mays) (protein)
chain: MNVVVVASECAPFCKTGGLGDVVGALPKALARRGHRVMVVIPRYGEYAEARDLGVRRRYKVAGQDSEVTYFHSYIDGVDFVFVEAPPFRHRHNNIYGGERLDILKRMILFCKAAVEVPWYAPCGGTVYGDGNLVFIANDWHTALLPVYLKAYYRDNGLMQYARSVLVIHNIAHQGRGPVDDFVNFDLPEHYIDHFKLYDNIGGDHSNVFAAGLKTADRVVTVSNGYMWELKTSEGGWGLHDIINQNDWKLQGIVNGIDMSEWNPAVDVHLHSDDYTNYTFETLDTGKRQCKAALQRQLGLQVRDDVPLIGFIGRLDHQKGVDIIADAIHWIAGQDVQLVMLGTGRADLEDMLRRFESEHSDKVRAWVGFSVPLAHRITAGADILLMPSRFEPCGLNQLYAMAYGTVPVVHAVGGLRDTVAPFDPFNDTGLGWTFDRAEANRMIDALSHCLTTYRNYKESWRACRARGMAEDLSWDHAAVLYEDVLVKAKYQW
B3 gave a Km ([3]; other: with amylopectin) of 320 ± 30 µM, a Vmax ([3]; other: with amylopectin) of 90.9 ± 4.2 μmol min^−1 mg^−1 protein and a Km ([3]; other: with glycogen) of 320 ± 40 µM. The Vmax ([3]; other: with glycogen) was 130 ± 6 μmol min^−1 mg^−1 protein.

B4: maize starch synthase SSI-3 (STSI-3), N-terminally truncated SSI, first 93 amino acids of SSI-1 deleted, N-terminus SIVFVTGE (SEQ ID NO:66) (Zea mays) (protein)
chain: SIVFVTGEASPYAKSGGLGDVCGSLPVALAARGHRVMVVMPRYLNGTSDKNYANAFYTEKHIRIPCFGGEHEVTFFHEYRDSVDWVFVDHPSYHRPGNLYGDKFGAFGDNQFRYTLLCYAACEAPLILELGGYIYGQNCMFVVNDWHASLVPVLLAAKYRPYGVYKDSRSILVIHNLAHQGVEPASTYPDLGLPPEWYGALEWVFPEWARRHALDKGEAVNFLKGAVVTADRIVTVSKGYSWEVTTAEGGQGLNELLSSRKSVLNGIVNGIDINDWNPATDKCIPCHYSVDDLSGKAKCKGALQKELGLPIRPDVPLIGFIGRLDYQKGIDLIQLIIPDLMREDVQFVMLGSGDPELEDWMRSTESIFKDKFRGWVGFSVPVSHRITAGCDILLMPSRFEPCGLNQLYAMQYGTVPVVHATGGLRDTVENFNPFGENGEQGTGWAFAPLTTENMFVDIANCNIYIQGTQVLLGRANEARHVKRLHVGPCR
B4 was tested, and the Km [4] was 620 ± 40 µM.

B5: maize starch synthase SSI-1 (STSI-1), full length SSI (583 amino acids), N-terminus CVAELSREGP (SEQ ID NO:64) (Zea mays) (protein)
chain: CVAELSREGPAPRPLPPALLAPPLVPGFLAPPAEPTGEPASTPPPVPDAGLGDLGLEPEGIAEGSIDNTVVVASEQDSEIVVGKEQARAKVTQSIVFVTGEASPYAKSGGLGDVCGSLPVALAARGHRVMVVMPRYLNGTSDKNYANAFYTEKHIRIPCFGGEHEVTFFHEYRDSVDWVFVDHPSYHRPGNLYGDKFGAFGDNQFRYTLLCYAACEAPLILELGGYIYGQNCMFVVNDWHASLVPVLLAAKYRPYGVYKDSRSILVIHNLAHQGVEPASTYPDLGLPPEWYGALEWVFPEWARRHALDKGEAVNFLKGAVVTADRIVTVSKGYSWEVTTAEGGQGLNELLSSRKSVLNGIVNGIDINDWNPATDKCIPCHYSVDDLSGKAKCKGALQKELGLPIRPDVPLIGFIGRLDYQKGIDLIQLIIPDLMREDVQFVMLGSGDPELEDWMRSTESIFKDKFRGWVGFSVPVSHRITAGCDILLMPSRFEPCGLNQLYAMQYGTVPVVHATGGLRDTVENFNPFGENGEQGTGWAFAPLTTENMFVDIANCNIYIQGTQVLLGRANEARHVKRLHVGPCR
B5 gave a Km [5] of 240 ± 20 µM.
